From patent US10786576B2, “Fatty acids and their use in conjugation to biomolecules” (Novartis AG, dated 2020)
Positions of bridges follow the written chain, without caps; N, C: chain ends. Non-standard residues stand in square brackets, D forms with d. No end group written: not given here. pGlu = O=C1CC[C@@H](C(=O)O)N1; Nle = CCCC[C@H](N)C(=O)O; I‑37 = not defined here

Tests used:
RXFP1 [1] = biological target: RXFP1
RXFP1 [2] = biological target: RXFP1; remark: listed apart in the source
[3] = biological target: hFGF23-variant of Example 28B
APJ = APJ (human, UniProt P35414); assay: cell-based or functional assay

Sequence of MC3R (P41968 whole entry): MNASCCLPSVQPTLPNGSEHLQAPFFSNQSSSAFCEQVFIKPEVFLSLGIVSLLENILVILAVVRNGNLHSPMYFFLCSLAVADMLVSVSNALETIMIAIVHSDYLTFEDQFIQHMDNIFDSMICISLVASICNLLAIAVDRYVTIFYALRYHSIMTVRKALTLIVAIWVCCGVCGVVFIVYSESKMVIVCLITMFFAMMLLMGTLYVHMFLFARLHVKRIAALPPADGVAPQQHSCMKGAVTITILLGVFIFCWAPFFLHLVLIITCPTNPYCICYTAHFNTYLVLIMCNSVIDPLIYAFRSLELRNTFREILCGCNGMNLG
Sequence of oxytocin receptor (P30559 whole entry): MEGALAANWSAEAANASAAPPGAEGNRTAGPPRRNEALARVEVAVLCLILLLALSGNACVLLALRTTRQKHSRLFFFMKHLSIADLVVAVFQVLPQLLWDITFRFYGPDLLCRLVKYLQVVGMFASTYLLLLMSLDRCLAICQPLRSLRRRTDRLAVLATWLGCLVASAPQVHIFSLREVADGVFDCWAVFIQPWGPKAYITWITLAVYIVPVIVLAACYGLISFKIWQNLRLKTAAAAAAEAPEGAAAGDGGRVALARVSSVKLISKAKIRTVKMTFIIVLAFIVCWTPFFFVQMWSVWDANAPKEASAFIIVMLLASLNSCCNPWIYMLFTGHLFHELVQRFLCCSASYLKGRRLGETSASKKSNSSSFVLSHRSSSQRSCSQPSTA

Oxytocin (peptide)
Emax (the concentration where the reference agonist elicited a maximal response), calcium flux (oxytocin receptor): 1.25 µM

Serelaxin (ligand)
cAMP (HTRF), agonist mode, EC50 (RXFP1 [1]): 1.12 nM
cAMP (HTRF), Ec50 (nM), 0% Plasma (RXFP1 [2]): 8 nM
cAMP (HTRF), Ec50 (nM), 4% Plasma (RXFP1 [2]): 0.3 nM
cAMP (HTRF), Ec50 (nM), 10% Plasma (RXFP1 [2]): 0.4 nM
cAMP (HTRF), Ec50 (nM), 600 uL BSA (RXFP1 [2]): 0.7 nM

B1: Example 27B: Di-fatty acid conjugate of AgRP(83-132) (AgRP+2 FA) (ligand)
chain: {I‑37}-SSRRCVRLHESCLGQQVPCCDPCATCYCRFFNAFCYCRK(I‑37)LGTAMNPCSRT
modifications: disulfide 12-26, 19-37, 5-20, 23-47, 28-35; not fully specified; printed as Ser-Ser-Arg-Arg-Cys-Val-Arg-Leu-H is-Glu-Ser-Cys-Leu-Gly-Gln-Gln-Val-Pro-Cys-Cys-Asp-Pro-Cys-Ala-Thr-Cys-Tyr-Cys-Arg-Phe-Phe-Asn-Ala-Phe-Cys-Tyr-Cys-Arg-Lys-Leu-Gly-Thr-Ala-Met-Asn-Pro-Cys-Ser-Arg-Thr; reading uncertain
MC3R EC50 [nM] (cAMP assay, antagonist protocol) (MC3R): 65 nM
MC4R EC50 [nM] (HTRF cAMP assay) (MC4R): 167 nM

B2: Example 27A: Mono fatty acid conjugate of AgRP (AgRP+1FA) (ligand)
chain: {I‑37}-SSRRCVRLHESCLGQQVPCCDPCATCYCRFFNAFCYCRKLGTAMNPCSRT
modifications: disulfide 12-26, 19-37, 5-20, 23-47, 28-35; reading uncertain
MC3R EC50 [nM] (cAMP assay, antagonist protocol) (MC3R): 7 nM
MC4R EC50 [nM] (HTRF cAMP assay) (MC4R): 18 nM

B3: AgRP(83-132) (ligand)
chain: SSRRCVRLHESCLGQQVPCCDPCATCYCRFFNAFCYCRKLGTAMNPCSRT
modifications: disulfide 12-26, 19-37, 5-20, 23-47, 28-35
MC3R EC50 [nM] (cAMP assay, antagonist protocol) (MC3R): 12 nM

B4: transglutaminase enzyme (Ajinomoto) (enzyme)
chain: DSDDRVTPPAEPLDRMPDPYRPSYGRAETVVNNYIRKWQQVYSHRDGRKQQMTEEQREWLSYGCVGVTWVNSGQYPTNRLAFASFDEDRFKNELKNGRPRSGETRAEFEGRVAKESFDEEKGFQRAREVASVMNRALENAHDESAYLDNLKKELANGNDALRNEDARSPFYSALRNTPSFKERNGGNHDPSRMKAVIYSKHFWSGQDRSSSADKRKYGDPDAFRPAPGTGLVDMSRDRNIPRSPTSPGEGFVNFDYGWFGAQTEADADKTVWTHGNHYHAPNGSLGAMHVYESKFRNWSEGYSDFDRGAYVITFIPKSWNTAPDKVKQGWP
TGase labelling of hFGF23-variant with intermediate 25d, LCMS [3]: 90%

B5: pE-R-P-R-L-C*-H-K-G-P-Nle-C*-F-OH (Disulfide C6-C12) (peptide)
peptide: [pGlu]RPRLCHKGP[Nle]CF-OH
modifications: disulfide 6-12
SMILES: CCCC[C@@H]1NC(=O)[C@@H]2CCCN2C(=O)CNC(=O)[C@H](CCCCN)NC(=O)[C@H](Cc2c[nH]cn2)NC(=O)[C@@H](NC(=O)[C@H](CC(C)C)NC(=O)[C@H](CCCNC(=N)N)NC(=O)[C@@H]2CCCN2C(=O)[C@H](CCCNC(=N)N)NC(=O)[C@@H]2CCC(=O)N2)CSSC[C@@H](C(=O)N[C@@H](Cc2ccccc2)C(=O)O)NC1=O
hAPJ Ca2+ Flux EC50 (APJ): 1.04 nM

B6: pE-R-P-C*-L-S-C*-K-G-P-(D-Nle)-NH(Phenethyl) (disulfide C4-C7) (peptide)
peptide: ERPCLSCKGPL
modifications: pE (pyroglutamate) at the N-terminus; D-Nle at position 11; C-terminal NH(Phenethyl); disulfide C4-C7
hAPJ Ca2+ Flux EC50 (APJ): 3 nM
